Values quoted from earlier work as cited in publication PMC6368066 (Neuromuscular disorders : NMD, 2018).
Where no end group is shown, it is not given here.

Tests used:
[1] = target: Piezo 1 (UniProt E2JF22); assay: outside-out patch clamp
[2] = system: mdx muscles; conditions: mdx muscles in vitro, 10 μM
[3] = system: dystrophin; conditions: phase III trials, over 180 weeks

UniProt E2JF22, sequence (E2JF22 whole entry): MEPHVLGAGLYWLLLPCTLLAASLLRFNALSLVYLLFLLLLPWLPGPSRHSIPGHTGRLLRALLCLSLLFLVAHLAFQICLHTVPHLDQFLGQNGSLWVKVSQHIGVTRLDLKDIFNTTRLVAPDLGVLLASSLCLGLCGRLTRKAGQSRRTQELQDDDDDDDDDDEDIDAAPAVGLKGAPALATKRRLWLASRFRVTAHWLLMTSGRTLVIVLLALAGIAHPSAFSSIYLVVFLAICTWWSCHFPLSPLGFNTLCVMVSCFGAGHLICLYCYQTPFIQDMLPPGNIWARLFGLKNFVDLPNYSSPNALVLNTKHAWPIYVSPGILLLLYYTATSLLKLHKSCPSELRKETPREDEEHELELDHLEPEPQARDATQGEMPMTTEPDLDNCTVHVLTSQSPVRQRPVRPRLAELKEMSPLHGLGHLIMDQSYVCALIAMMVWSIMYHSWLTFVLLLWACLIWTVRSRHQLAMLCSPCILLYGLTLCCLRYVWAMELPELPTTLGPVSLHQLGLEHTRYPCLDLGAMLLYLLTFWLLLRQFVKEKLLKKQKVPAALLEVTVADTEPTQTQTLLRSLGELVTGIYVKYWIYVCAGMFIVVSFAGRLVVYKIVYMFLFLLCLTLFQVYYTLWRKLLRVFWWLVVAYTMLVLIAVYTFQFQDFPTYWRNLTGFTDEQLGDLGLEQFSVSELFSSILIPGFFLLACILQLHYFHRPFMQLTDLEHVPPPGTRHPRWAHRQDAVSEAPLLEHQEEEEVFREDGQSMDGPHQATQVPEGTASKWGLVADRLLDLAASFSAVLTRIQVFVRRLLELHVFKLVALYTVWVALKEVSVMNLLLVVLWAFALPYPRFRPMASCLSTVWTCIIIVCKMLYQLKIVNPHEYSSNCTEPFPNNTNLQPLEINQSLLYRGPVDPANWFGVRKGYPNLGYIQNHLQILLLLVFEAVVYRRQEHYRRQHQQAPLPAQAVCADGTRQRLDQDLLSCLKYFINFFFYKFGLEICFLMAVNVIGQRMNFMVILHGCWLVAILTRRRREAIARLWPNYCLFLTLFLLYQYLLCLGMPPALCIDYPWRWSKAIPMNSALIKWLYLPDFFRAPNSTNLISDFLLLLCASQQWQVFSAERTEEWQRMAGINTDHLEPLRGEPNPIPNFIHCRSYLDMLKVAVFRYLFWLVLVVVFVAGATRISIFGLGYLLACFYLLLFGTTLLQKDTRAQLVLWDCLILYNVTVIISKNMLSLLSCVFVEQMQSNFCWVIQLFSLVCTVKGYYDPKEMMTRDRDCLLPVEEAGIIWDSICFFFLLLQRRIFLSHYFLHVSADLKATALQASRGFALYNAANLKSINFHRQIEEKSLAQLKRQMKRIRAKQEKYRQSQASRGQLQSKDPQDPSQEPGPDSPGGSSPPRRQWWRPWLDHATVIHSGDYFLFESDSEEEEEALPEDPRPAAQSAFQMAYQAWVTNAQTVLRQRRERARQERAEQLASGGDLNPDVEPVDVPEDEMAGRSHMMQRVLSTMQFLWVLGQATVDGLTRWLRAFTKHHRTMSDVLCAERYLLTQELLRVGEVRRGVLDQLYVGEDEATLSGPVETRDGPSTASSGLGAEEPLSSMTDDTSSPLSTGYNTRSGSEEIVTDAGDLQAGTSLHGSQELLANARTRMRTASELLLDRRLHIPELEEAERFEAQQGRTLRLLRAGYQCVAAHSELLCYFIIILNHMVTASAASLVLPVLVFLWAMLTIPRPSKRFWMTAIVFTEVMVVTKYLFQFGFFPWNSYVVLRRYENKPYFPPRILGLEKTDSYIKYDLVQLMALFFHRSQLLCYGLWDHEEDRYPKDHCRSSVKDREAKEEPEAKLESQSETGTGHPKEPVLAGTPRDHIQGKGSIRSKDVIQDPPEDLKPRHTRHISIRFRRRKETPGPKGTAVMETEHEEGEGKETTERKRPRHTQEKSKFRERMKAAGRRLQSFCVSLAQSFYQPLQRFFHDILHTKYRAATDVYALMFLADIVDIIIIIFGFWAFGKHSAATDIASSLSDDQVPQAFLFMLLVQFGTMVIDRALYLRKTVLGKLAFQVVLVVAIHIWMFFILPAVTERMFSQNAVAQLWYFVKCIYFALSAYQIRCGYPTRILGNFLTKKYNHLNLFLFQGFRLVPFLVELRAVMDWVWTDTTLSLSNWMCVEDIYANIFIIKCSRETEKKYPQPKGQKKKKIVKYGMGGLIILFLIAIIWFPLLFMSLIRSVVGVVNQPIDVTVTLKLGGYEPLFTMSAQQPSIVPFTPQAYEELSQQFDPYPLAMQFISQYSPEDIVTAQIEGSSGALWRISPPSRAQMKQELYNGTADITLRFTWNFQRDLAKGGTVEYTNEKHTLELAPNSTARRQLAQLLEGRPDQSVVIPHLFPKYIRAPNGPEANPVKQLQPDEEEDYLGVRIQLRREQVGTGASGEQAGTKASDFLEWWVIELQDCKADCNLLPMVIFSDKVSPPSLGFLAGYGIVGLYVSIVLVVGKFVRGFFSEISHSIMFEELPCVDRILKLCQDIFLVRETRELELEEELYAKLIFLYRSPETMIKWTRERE

Substance: GsMTx4 (from UniProt Q7YT39)
- Kd [1]: 0.5 µM

Substance: GsMTx4: 34 amino acid peptide that selectively inhibits nonselective cationic MSCs (GCLEFWWKCNPNDDKCCRPKLKCSKLFKLCNFSF; ends and bridges not checked; cysteine pairing not given here; UniProt Q7YT39 47-80, looked up)
- contraction-induced dye accumulation [2]: reduced contraction-induced dye accumulation

Substance: eteplirsen
- dystrophin levels [3]: ~ 1 % of normal dystrophin levels

Substance: glucagon
- serum half-life: 1 to 2 min
